According to PMC7968844:
Like-named read-outs stand apart in the source and are kept apart here.

| Substance | degradation_or_half_life (O-GlcNAc at S554) | degradation_or_half_life (O-GlcNAc at T553) |
| --- | --- | --- |
| ERα: ERα-2M (T553A + S554A) in GREB1-KO cells | no change | no change |
| ERα: GREB1-KO | decreases | decreases |
